# Data from the nanobody polyreactivity screen of Harvey et al. (2022).
# Experiment: yeast display, Sf9 membrane polyspecificity reagent, FACS + sequencing; frameworks hold sequencing errors
# How it was run: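 Synthetic nanobody libraries on Saccharomyces cerevisiae BJ5465 were galactose-induced for 36–48 hours, stained 1 hour at 4 °C with 10% biotinylated, detergent-solubilized Sf9 membrane reagent and enriched on streptavidin microbeads. FACS then separated cells into low and high (top ~1%) gates by anti-HA (expression) and streptavidin (reagent binding) fluorescence. Genes were colony-PCR amplified, MiSeq 2 × 250 sequenced and CDR-length filtered. A clone's polyreactivity label is that of its gate of origin.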
row,Sequence,polyreactivity (PSR sort gate)
1,QVQLVESGGGLVQAGGSLRLSCAASGFIFTYYAMGWYRQAPGKERELVASITISGGSTYYADSVKGRFTISRDNAKNTVYLQMNSLKPEDTAVYYCNVVPWYYGYDYWGQGTQVTVSS,high polyreactivity
2,QVQLVESGGGLVQAGGSLRLSCAASGFIFTYYAMGWYRQAPGKERELVAVISWSGGTTYYADSVKGRFTISRDNAKNTVYLQMNSLKPEDTAVYYCAAGKVSFWLVFEYDYWGQGTQVTVSS,low polyreactivity
3,QVQLVESGGGLVQAGGSLRLSCAASGFIFTYYDMGWYRQAPGKERELVASISWDGGRTYYADSVKGRFTISRDNAKNTVYLQMNSLKPEDTAVYYCAKRLGGSPIQARGDYWGQGTQVTVSS,low polyreactivity
4,QVQLVESGGGLVQAGGSLRLSCAASGFIFTYYGMGWYRQAPGKERELVAAITWSGASTYYADSVKGRFTISRDNAKNTVYLQMNSLKPEDTAVYYCNAGWDSGIVQSDETVYKYDYWGQGTQVTVSS,low polyreactivity
5,QVQLVESGGGLVQAGGSLRLSCAASGFIFVAYAMGWYRQAPGKERELVATIDSSGGTTYYADSVKGRFTISRDNAKNTVYLQMNSLKPEDTAVYYCNAPIYPYREFGRDYWGQGTQVTVSS,low polyreactivity
6,QVQLVESGGGLVQAGGSLRLSCAASGFIFVGNAMGWYRQAPGKERELVAAISSGTSTNYADSVKGRFTISRDNAKNTVYLQMNSLKPEDTAVYYCNAEVPATNEYTKRMDYWGQGTQVTVSS,low polyreactivity
7,QVQLVESGGGLVQAGGSLRLSCAASGFIFVGYAMGWYRQAPGKERELVAAITDGGRTKYADSVKGRFTISRDNAKNTVYLQMNSLKPEDTAVYYCAADDLHTYYTLDYWGQGTQVTVSS,high polyreactivity
8,QVQLVESGGGLVQAGGSLRLSCAASGFIFVHNAMGWYRPAPGKERELVAAIRSRGGSTYYADSVKGRFTISRDNAKNTVYLQMNSLKPEDTAVDDCAADGAVVSSSRKFGYWGQGTQVTVSS,low polyreactivity
9,QVQLVESGGGLVQAGGSLRLSCAASGFIFVHNAMGWYRQAPGKERELVAAITSRGRTYYADSVKGRFTISRDNAKNTVYLQMNSLKPEDTAVYYCNAYWRGEYRYDSWGQGTQVTVSS,high polyreactivity
10,QVQLVESGGGLVQAGGSLRLSCAASGFIFVKNAMGWYRQAPGKERELVAVISTRGGRTYYADSVKGRFTISRDNAKNTVYLQMNSLKPEDTAVYYCAALYWYSRSSWDYDYWGQGTQVTVSS,high polyreactivity
11,QVQLVESGGGLVQAGGSLRLSCAASGFIFVKYAMGWYRQAPGKERELVAAITNGGSTYYADSVKGRFTISRDNAKNTVYLQMNSLKPEDTAVYYCAAQYHDWWRRLLYRSFLPFDYWGQGTQVTVSS,low polyreactivity
12,QVQLVESGGGLVQAGGSLRLSCAASGFIFVLNVMGWYRQAPGKEMELVAAITWSGTSTYYADSVKGRFTISRDNAKNTVYLQMNSLKPEDTAVYYCNADWWSDGYDYWGQGSQVTVSS,low polyreactivity
13,QVQLVESGGGLVQAGGSLRLSCAASGFIFVLYAKGWYRQAPGQERELVAAISRTGGSTYYADSVKGRFTISRDNAKNTVYLQMNSLKPEDTAVYYCAVSRSKTYDYWGQGTQVTVSS,high polyreactivity
14,QVQLVESGGGLVQAGGSLRLSCAASGFIFVNYMGWYRQAPGKERELVAAISRGGSTNYADSVKGRFTISRDTAKNTVYLQMNSLKPEDTAVYYCAAETWYSGYTYDSCGQGTQVTVSS,low polyreactivity
15,QVQLVESGGGLVQAGGSLRLSCAASGFIFVPNAMGWYRQAPGNERELVAAIRSSGGTTYYADSVKGRFTISRDNAKNTVYLQMNSLKPEDTAVYYCAAKYTSRLNSGYSNYYWGQGTQVTVSW,high polyreactivity
16,QVQLVESGGGLVQAGGSLRLSCAASGFIFVPYAMGWYRQAPGKERELVAAISSSGGSTNYTDSVKGRFTISRDNAKNTVYLQMISLKPEDTAVYYCAAATWYVNPTHFNRYSEFYYWGQGTQVTVSS,low polyreactivity
17,QVQLVESGGGLVQAGGSLRLSCAASGFIFVPYAMGWYRQAPGQERELVAAISSSGGSTNYTDSVKGRFTISRDNAKNSVYLQMNRLKPEDTAVYYCAAATWYVNPTHFNRYSEFYYWGQGTQVTVSS,low polyreactivity
18,QVQLVESGGGLVQAGGSLRLSCAASGFIFVQYAMGWYRQAPGKERELVAAITKSGGRTYYADSVKGRFTISRDNAKNTVYLQMNSLKPEDTAVYYCAALGNGNFPTVDYWGQGTQVTVSS,high polyreactivity
19,QVQLVESGGGLVQAGGSLRLSCAASGFIFVRYAMGWYRQAPGKERELVAAISSGGSTKYADSVKGRFTISRDNAKNTVYLQMNSLKPEDTAVYYCAADATPGRGVDYWGQGTQVTVSS,high polyreactivity
20,QVQLVESGGGLVQAGGSLRLSCAASGFIFVRYAMGWYRQAPGKERELVAAISTSGSSTYYADSVKGRFTISRDNAKNTVFLQMNSLKPEDTAVYYCAAKDRGQSYGYWGQGTQVTVSS,high polyreactivity
21,QVQLVESGGGLVQAGGSLRLSCAASGFIFVSNAMGWYRQAPGKERELVATITNGDRTYYADSVKGRFTISRDNAKNTVYLQMNSLKPEDTGVYYCNADDQVGSIWKWYGKYEYRGQGTQVTVSS,low polyreactivity

row,Sequence,polyreactivity (PSR sort gate)
1,QVQLVESGGGLVQAGGSLRLSCAASGFIFVVYAMGWYRQAPGKERELVATISSGGGTYYADSVKGRFTISRDNAKNSVYFQMNSLKPEDTAVYYCAARRSRLYHFGGNNYWGQGTQVTVSS,high polyreactivity
2,QVQLVESGGGLVQAGGSLRLSCAASGFIFVYNAMGWYRQATGKERELVAAIDYGGGSTTYADSVKVRFTISRDNAKNTVYLQMNSLKPEDTAVYYCAAYYRYLDDIYEYEYWGQGTQVTVSS,low polyreactivity
3,QVQLVESGGGLVQAGGSLRLSCAASGFIFVYYAMVWYRQAPGKERELVAAITLRGGSTNYADSVKGRFTISRDNAKNTVYLQMNSRKPEDTAVYYCAAYSVWGGSYLALDYWGQGTQVTVSS,low polyreactivity
4,QVQLVESGGGLVQAGGSLRLSCAASGFIFVYYTMGWYRQAPGNERELVAAISVSGGRTYYADSVKGRFTISRDNAKNTVYLQMNSLKPEDTAVYYCNARNGYGIGYWGQGTQVTVSS,high polyreactivity
5,QVQLVESGGGLVQAGGSLRLSCAASGFIFVYYVMGWYRTAPGKERELVAAITQSGGSTYYADSVKGRFTISRDNAKNTVYLQMNSLKPEDTAVYYCAAYRRTTGGGYDYWGQGTQVTVSS,high polyreactivity
6,QVQLVESGGGLVQAGGSLRLSCAASGFIFWAYDMGWYRQAPGKERELVAGIDWSGGSTYYADSVKGRFTISRDNAKNTVYLQMNSLKPEDTAVYYCAADRLLYGGGREYWGQGTQVTVSS,high polyreactivity
7,QVQLVESGGGLVQAGGSLRLSCAASGFIFWDYALGWYRQAPGKEREFVANISRSVGSTYYADSVKGRFTISRDNAKNTVYLQMYTLKPEDTAVYYCAAVTWGEGFDYWGQGTQVTVSS,low polyreactivity
8,QVQLVESGGGLVQAGGSLRLSCAASGFIFWGNAMGWYRQAPGKERELVAAISSSSGSTYYADSVKGRFTISRDNAKNTVYLQMNSLKPVDSAVYDCAVDTPRSYRAQGAYNYWGQGTQVTVSS,low polyreactivity
9,QVQLVESGGGLVQAGGSLRLSCAASGFIFWKYAMGWYRPAPGKERELVAAISRSGGRTYYADSVKGRFTISRDNAKNTVYLQMNSLKPEDTAVYYCAKDSATYPYGTVGEYNYWGQGTQVTVSS,high polyreactivity
10,QVQLVESGGGLVQAGGSLRLSCAASGFIFWLYAMGWSRQAPGKERELVASINWSGGDTYYADSVKGRFTISRDKAKNTVYLQMNSLKPEDTAVYYCAARYWSIYDYWGQGTQVTVSS,low polyreactivity
11,QVQLVESGGGLVQAGGSLRLSCAASGFIFWLYAMGWYRQAPGKERELVAAISRSGGRTYYADSVKGRFTISRDNAKITVYLQMNSLKPEDTAVYYFAKVDNYKSYPYDYWGQGTQVTVSS,high polyreactivity
12,QVQLVESGGGLVQAGGSLRLSCAASGFIFWSNAMGWYRQAPGKERELVAAISWSGGSTYYADSVKGRFTISRDNAKKTVYLQMNSLKPEDTAVYYCNTLNVQRDEHDYWGQGTQVTVSS,high polyreactivity
13,QVQLVESGGGLVQAGGSLRLSCAASGFIFWSNAMGWYRQAPGKERELVAAISWSGGSTYYADSVKGRFTISRDNAKNTVYLQMNSLKPEDTAVYYCNTLNVQRDEHDYWGQGTQVTVSS,high polyreactivity
14,QVQLVESGGGLVQAGGSLRLSCAASGFIFWSNARGWYRQAPGQDRELVAAINSSGGRTDYADSVKGRFTNSRDNAKNTDYLHMNSLKPEDTAVYYCAARLHSPPYRYDYWGQGTQVTVSS,high polyreactivity
15,QVQLVESGGGLVQAGGSLRLSCAASGFIFWSYAMGWYRQAPGKERELVAAINTSTGRTYYADSVKGRFTISRDNAKNTVYLQMNSLKPEDTAVYYCAADLPWGPLFDYWGQGTQVTVSS,low polyreactivity
16,QVQLVESGGGLVQAGGSLRLSCAASGFIFWTYAMGWYRQAPGKERELVAAISSGGTITKYADSVKGRFTISRDNATNTVYLQMNSLKPEDTAVYYCNARENAVSLRDYWGQGTQVTVSS,high polyreactivity
17,QVQLVESGGGLVQAGGSLRLSCAASGFIFWTYAMGWYRQAPGKERELVARISWSGGSTYYADSVKGRFTISRDNAKNTVYLQMNSLKPEDTAVYYCARLATLYESIEYDYWGHGTQVTVSS,low polyreactivity
18,QVQLVESGGGLVQAGGSLRLSCAASGFIFWVYAMGWYRQAPGKESELVAAITSGGRTYYADSEKGRFTISRDNAKNTVYLQMNSLKPEDTAVYYCAARWHYGYYSYYYWGQGTQVTVSS,high polyreactivity
19,QVQLVESGGGLVQAGGSLRLSCAASGFIFWYYAMGWYRQAPGKERELVATITTGGGTNYADSVKGRFTISRDNAKNTVYLQMNSLKPEDTAVYYCNADFRWYAEDDYWGQGTQVTVSS,low polyreactivity
20,QVQLVESGGGLVQAGGSLRLSCAASGFIFYAYAMGWYRPAPGKERELVAAISQRGGITYYADSVKGRFTISRDNAKNTVYLQMNRLKPEDTAVYYCNAGQRYYTSRYYYWGQGTQVTVSS,high polyreactivity
